In the supplement of paper PMC12042874:
± gives the uncertainty stated by the source.

Experiment: amyloid nucleation score (Sup35N fusion, yeast selection) (log enrichment); library NNK2; higher = more nucleation; inactive = no reads after selection
Procedure, shortened: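 On medium lacking adenine and uracil, psi-negative yeast expressing peptides of 20 random codons fused to Sup35N were grown 7 days at 30°C after a 24-hour induction with 100 μM copper sulfate. Illumina sequencing of input and output plasmid inserts gave the reads, and sequences under 100 input reads were excluded. The nucleation score is the DiMSum log enrichment of output over input reads, centred on the mode score of non-aggregating sequences.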

| Substance | amyloid nucleation score |
| --- | --- |
| HYLAIVTWLPYRCRF | 0.935 ± 0.15 |
| TIWGYARC | 2.67 ± 0.11 |
| VGVWTALTPCKVVFTSDRLS | 1.23 ± 0.4 |
| YPNTLFHWEAS | 0.359 ± 0.29 |
| RLKELRQDIPVMPNRQL | 1.51 ± 0.3 |
| IVSETKITIVC | -0.275 ± 0.48 |
| LTCSKSPIWWAIIFVGYFTN | 0.022 ± 0.62 |
| KEMARTSSSRCDITLQWPAS | 0.562 ± 0.44 |
| SSSFLL | -0.545 ± 0.76 |
| SLDSNNSVFFVCMYSYRGCS | 0.359 ± 0.32 |
| TLHWSMR | 8.355 ± 0.034 |
| IDCFIVISSMMSRVLYCGER | 0.21 ± 0.25 |
| CLPGTCRRCQWGRGIDQSSE | 0.317 ± 0.41 |
| LEHQSRSFMNFYTRPNKPLE | -0.519 ± 1 |
| DAMSMCP | 7.398 ± 0.061 |
| YVATMGKGLNYLSCLEDNAA | 0.282 ± 0.56 |
| SVFIGVVPNESQCYV | 0.069 ± 0.39 |
| WFDIKL | -0.367 ± 0.48 |
| MISRCDWFWSKLKTSL | 2.29 ± 0.06 |
| YIVCLMESIRI | 3.2 ± 0.17 |
| IYLFFSCFFAILTNLVRPFA | 3.83 ± 0.081 |
| VGGYLAICNGLSSLCLDPG | -0.59 ± 1.1 |
| SHVTGR | 0.602 ± 0.34 |
| IVNMMIAANLACAMWSNCKQ | 9.266 ± 0.044 |
| ASSALHRVMVLAVTFFRHSS | 0.839 ± 0.41 |

| Substance | amyloid nucleation score |
| --- | --- |
| ARNTDNPMSNGPYIWIGPY | 1.21 ± 0.2 |
| VRNSSV | inactive |
| AVPAVRVNGLHIRNCGYTGP | 1.22 ± 0.2 |
| NCARH | -0.215 ± 0.3 |
| KSETAVRVNGYGAKIQE | -0.224 ± 0.79 |
| FYRNPHR | 0.706 ± 0.81 |
| VNVSGSGSVPY | 0.741 ± 0.27 |
| YSSPGSSPAFQRFGVVRRMN | inactive |
| QFDWDRVYMFSTLPFCIWWV | -0.783 ± 0.35 |
| LLTGVISGYQIRWGTTSLNG | 2.49 ± 0.1 |
| CMYNRLLLLGALFVTPQWVR | 0.079 ± 0.5 |
| LHIYTKVHRSR | 3.59 ± 0.13 |
| ETRGNRPF | 0.88 ± 0.33 |
| RSRRRHRLDVGSWRWCCGES | 4.08 ± 0.052 |
| WTWVLMNIL | -1.76 ± 0.64 |
| SSMRRGVIRRCNYKL | -0.992 ± 0.24 |
| RCDLWLSYCQPLNVFLYWLV | 0.313 ± 0.65 |
| SGNSENSTLVKNYFSTLSLS | -0.124 ± 0.5 |
| YYQYGWEYARLWLIDNILHG | -0.064 ± 1.1 |
| IMTMTGNVDNIAVIRRS | -0.519 ± 1 |
| VFLAPRMF | -0.864 ± 0.45 |
| KVGDQLQLRTSATV | 0.459 ± 0.22 |
| MQFLFK | -1.33 ± 1.1 |
| RLTYNKYLTWNCYVFLSHAL | -0.464 ± 1.1 |
| TIYHSGRCLRKKGRELW | -0.139 ± 0.37 |

| Substance | amyloid nucleation score |
| --- | --- |
| NNIVIYDDLYNSMMALLWS | -1.25 ± 0.64 |
| KPHGGGSRLGCRGKWLTILL | 1.29 ± 0.32 |
| DRICRVDIYDVRDQSYTFSG | -0.279 ± 0.29 |
| VYFTSVMNSCVYVSAVCEMC | 6.953 ± 0.046 |
| HEPGLPVRSCNVGRHSLSIL | 0.522 ± 0.42 |
| DMLPVRVVAHWCVVARCTRV | 0.965 ± 0.2 |
| CTCLWNDMRRGP | 1.99 ± 0.25 |
| MVLIENSCKMSSYQE | -0.405 ± 0.35 |
| WVSVRKRHWTTHWLGVGVPN | 0.611 ± 0.66 |
| SAVIFAESTCV | -0.512 ± 0.79 |
| SIVSHKVITISMFVI | 4.5 ± 0.077 |
| SRWPLGNMCGKPVEMPEKWS | 0.836 ± 0.55 |
| VLGWCCLVLSILLKCEKVGL | -0.095 ± 1.1 |
| ELKVMGYMCPL | 0.801 ± 0.82 |
| PPVLLISKSSFMQLGCSLST | -0.587 ± 1 |
| YDYVEGAEPPLGDGCIVVFH | -0.451 ± 0.79 |
| GGISNVCLSYVRFQEFVFNV | 5.69 ± 0.093 |
| PDPLWGRPFYIWIMELGSRK | 2.32 ± 0.13 |
| IVLYVHTTLLAGS | 4.6 ± 0.091 |
| VAKRISHGIQLSLSCKGTRP | 0.138 ± 0.76 |
| YSELMFTEVIYTVYYLTFLR | -0.797 ± 0.76 |
| LGCNDSWEWDFVTPNGTFPF | -0.445 ± 0.48 |
| ACRELVWLG | 0.354 ± 0.65 |
| VVLFWLNCRRVYFLGSKYRA | 0.331 ± 0.8 |
| AILNAVGCNWGTRCDGLSVQ | -0.213 ± 0.48 |

| Substance | amyloid nucleation score |
| --- | --- |
| SECENAFVGVPPWRTKILWS | 2.19 ± 0.12 |
| RDSVCMTRLDMGLDCEWVFG | 1.57 ± 0.36 |
| HNLQECSPVGPGTAFFCGSW | -0.243 ± 1.1 |
| DLTCSC | 0.804 ± 0.3 |
| FHSLRQLFMNTGVL | inactive |
| GAHFYRTVMNVRSTLSRYIN | -0.507 ± 0.48 |
| NFFAHRVCHYFVIRCGLIT | inactive |
| MLECVSALGKLGWFIQPVCL | -0.32 ± 0.55 |
| IFSNIFSFV | 3.55 ± 0.13 |
| SCRIFFE | -0.062 ± 0.65 |
| LNKNRHGVGIFGIIKYKDMT | inactive |
| KESLAFTSVGVPYVWGLYGE | 0.035 ± 0.32 |
| GSKNFPRPIPDYVWVFTGAI | 0.032 ± 0.43 |
| ICYLKTQGKWFIILPWFVMM | 0.241 ± 0.8 |
| WTPVDVLCMIGMRSVCYINM | 1.79 ± 0.1 |
| CLVINSIKVFYARVGTSYKF | 2.01 ± 0.19 |
| SVSLNCSPLFFYFRRYKVSR | 6.052 ± 0.038 |
| LGPMTLATTLFNCKDRHVSP | 0.438 ± 0.29 |
| TSSVPGLRSWVWVKQDSDRW | 1 ± 0.19 |
| GLDCR | 0.024 ± 0.44 |
| DTDDVNHYSFTPRALSSGFI | inactive |
| RLTFSSIVTGGLQFKTLL | 2.75 ± 0.1 |
| SILSIYFDPYGCRL | 0.164 ± 1.1 |
| PSTYWRMILKFRVCEIVHGT | 0.231 ± 0.21 |
| YDYNCRDVWIWHA | -0.184 ± 0.63 |

| Substance | amyloid nucleation score |
| --- | --- |
| DLYNCMHWQHVEYIMLLHGL | -0.846 ± 0.35 |
| CIMMYVT | 0.259 ± 0.17 |
| LPVHANNGVNMFILIVPPGS | 5.948 ± 0.051 |
| KYGDNSMYLMLLMVCYKGAC | -0.622 ± 1.1 |
| KQLRSSVSSSYYHGNTVCAE | 0.794 ± 0.39 |
| DFESGWFSVDFVN | -0.853 ± 0.55 |
| YSLRLDVYYRGWADYPGLWT | 1.73 ± 0.18 |
| SAGGVSPFP | -0.659 ± 0.63 |
| LTRMKT | -0.311 ± 0.63 |
| QEMYALACHVLTCCNLRNKR | 9.866 ± 0.034 |
| CFNSTDN | inactive |
| ICSYSVAGCYRKYRASFSGE | inactive |
| PSHFVGFCAHSYDVGVFMWV | 0.077 ± 0.42 |
| RVLMHHYTLANLVSLVTNFF | 5.867 ± 0.043 |
| MGFLLRLCTYRCVVVIWGSI | -1.08 ± 0.43 |
| HYQYSFARTMVMLNMDWLML | 0.462 ± 0.43 |
| MYISKVFDALLLLRREPRHR | inactive |
| FVFVAARAFCRSVSNVSD | -0.399 ± 0.55 |
| CMEETMVSSLKLLTRPMTSR | 0.052 ± 0.29 |
| DVFWYDATTRYGGRCRGQIS | 1.11 ± 0.31 |
| ALWVKGMFGGTMTRGILFLC | -0.369 ± 1.1 |
| VTKDCNMRMKCTSSIIFLKN | -0.459 ± 1.1 |
| LSYRRFFRLILKGAVG | inactive |
| GFGSVLIW | -0.523 ± 1 |
| FILGSESNLRVSMRLFGSNW | 5.019 ± 0.03 |

| Substance | amyloid nucleation score |
| --- | --- |
| CASVSQGPKQLLPPNVTGLY | -0.176 ± 0.45 |
| GYLGMWVKTCCQWTGERSDM | 4.66 ± 0.057 |
| NGSSKIERDQRRWGQKAVDT | 2.83 ± 0.089 |
| RGWCLDRPQYNVFRAMSRSL | 0.066 ± 1 |
| WTWTYARDVHTTLN | 1.13 ± 0.41 |
| TIYPDMETHLV | -0.075 ± 0.49 |
| VLYLLKSSSFSTGVNSRCMR | -0.256 ± 1.1 |
| AQGILVLLSSD | 0.23 ± 0.47 |
| IVICSVFSIMTRLFRSVNGR | 8.429 ± 0.062 |
| PPDNVSNWYVVKWAGRMMQK | 4.13 ± 0.044 |
| MDGNDYAVVR | 0.861 ± 0.23 |
| AQTWMAKTISKDAVGGSPLS | 0.272 ± 0.56 |
| WSLQSQGYRILDGYGV | 0.6 ± 0.44 |
| SVFMFCVSEL | -0.049 ± 0.63 |
| HLIAFLSAYFYYVMLARMYF | -1.87 ± 1.1 |
| RMWCLGLDPLYTENKGSSDA | -0.427 ± 1.1 |
| TRPLFTFRAMVDTRIHVFPM | 0.201 ± 0.8 |
| RVDTYYQNL | 5.21 ± 0.059 |
| QFEVNNLTPIGEEGGPKDCP | 0.759 ± 0.43 |
| SVPDFDRWAFTGRVQTYADC | -0.614 ± 0.79 |
| NYLDLFTRVWKS | inactive |
| ITCDRYITDVIDNEA | inactive |
| ECYETRTSMEY | -0.102 ± 0.56 |
| FKCPFSNFFAMDGYY | -0.801 ± 0.55 |
| LWVVQTVDHTSKSSSVWSSL | 4.16 ± 0.078 |

| Substance | amyloid nucleation score |
| --- | --- |
| MTVYLLIVLKFCFRRMSPEA | -0.255 ± 0.49 |
| TVTRLSYGMFHQRNRVC | -0.267 ± 0.45 |
| LTLHICRAAVYSYGTLS | 1.63 ± 0.12 |
| CWQVYLIFMGRMVCLTVML | 1.15 ± 0.66 |
| NYGSSRLAPVHNT | 3.17 ± 0.12 |
| GYIYPNRIHNLYVGTMSVTV | 5.43 ± 0.093 |
| CYLVYFSYKLHQI | -1.43 ± 1.1 |
| KSSDGPKAQV | 1.13 ± 0.16 |
| TGDPTLLMAYSRSYVWRSER | 1.28 ± 0.3 |
| GGVHGGFRSYVVAIWYGMLN | -1.37 ± 1.1 |
| WMNFCPDVGHANGGVPNRLG | 0.583 ± 0.37 |
| HNMPARKYINSLMTFHVRWP | -0.321 ± 0.79 |
| LMVSRFVF | -0.206 ± 0.76 |
| WHCNFMHWVHKR | 6.383 ± 0.06 |
| RHYLLFGWIVSPKVELFSPS | 0.895 ± 0.81 |
| NCAVFTSGR | -0.478 ± 0.63 |
| GMSSIINVELAGQWTWVKFN | 4.18 ± 0.066 |
| FCLFQRDKTHSVWMGLKKFQ | -1.06 ± 0.78 |
| LYGHSVNMVV | -0.224 ± 0.39 |
| KHCIIRFIKLGLGKKLKQPV | -1.02 ± 0.36 |
| RTMFNLHADCERNLFWFGGW | 5.13 ± 0.065 |
| SVSYTNVLYHIKVDEFFNEC | 1.3 ± 0.25 |
